This note sets out measurements from patent publication US20160331662A1, “Compositions that Inhibit and Prevent the Formation of Dental Caries and Methods of Using the Same” (priority 2014, published 2016).

Test [1] addresses salivary agglutinin (SAG) (human) (UniProt Q9UGM3). Kind of test: SPR, analyte over SAG immobilized on CM5 chip, 1:1 Langmuir model. A general note: In SPR one partner is held on a chip, and binding of the other changes the refractive index at the surface.
In test [2] the target is iSRCR1 (Deglycosylated) (human) (UniProt Q9UGM3). Kind of test: SPR, analyte over ligand deglycosylated on the CM5 chip, 1:1 Langmuir model.
Test [3] deals with iSRCR123 (Deglycosylated) (human) (UniProt Q9UGM3). Described as above.
Another test addresses iSRCR123 (human) (UniProt Q9UGM3). Kind of test: SPR, analyte over ligand immobilized on CM5 chip, 1:1 Langmuir model.

Sequence of iSRCR1 (Deglycosylated) (human) (Q9UGM3 102-202): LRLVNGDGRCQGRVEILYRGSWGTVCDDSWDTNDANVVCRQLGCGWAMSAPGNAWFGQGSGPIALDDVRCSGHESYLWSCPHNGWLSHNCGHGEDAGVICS
Sequence of iSRCR123 (Deglycosylated) (human) (Q9UGM3 102-463 limits assumed): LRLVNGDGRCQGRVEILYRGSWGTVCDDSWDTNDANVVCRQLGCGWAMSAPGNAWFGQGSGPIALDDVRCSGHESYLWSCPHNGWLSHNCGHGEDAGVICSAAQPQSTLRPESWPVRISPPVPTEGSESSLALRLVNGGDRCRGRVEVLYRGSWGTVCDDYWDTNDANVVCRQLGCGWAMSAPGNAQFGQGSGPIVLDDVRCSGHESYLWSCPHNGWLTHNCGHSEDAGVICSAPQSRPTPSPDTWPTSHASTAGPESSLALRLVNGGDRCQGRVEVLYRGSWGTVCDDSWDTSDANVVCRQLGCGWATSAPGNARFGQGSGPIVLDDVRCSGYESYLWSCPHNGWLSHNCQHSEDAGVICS
Sequence of salivary agglutinin (SAG) (human) (Q9UGM3 whole entry): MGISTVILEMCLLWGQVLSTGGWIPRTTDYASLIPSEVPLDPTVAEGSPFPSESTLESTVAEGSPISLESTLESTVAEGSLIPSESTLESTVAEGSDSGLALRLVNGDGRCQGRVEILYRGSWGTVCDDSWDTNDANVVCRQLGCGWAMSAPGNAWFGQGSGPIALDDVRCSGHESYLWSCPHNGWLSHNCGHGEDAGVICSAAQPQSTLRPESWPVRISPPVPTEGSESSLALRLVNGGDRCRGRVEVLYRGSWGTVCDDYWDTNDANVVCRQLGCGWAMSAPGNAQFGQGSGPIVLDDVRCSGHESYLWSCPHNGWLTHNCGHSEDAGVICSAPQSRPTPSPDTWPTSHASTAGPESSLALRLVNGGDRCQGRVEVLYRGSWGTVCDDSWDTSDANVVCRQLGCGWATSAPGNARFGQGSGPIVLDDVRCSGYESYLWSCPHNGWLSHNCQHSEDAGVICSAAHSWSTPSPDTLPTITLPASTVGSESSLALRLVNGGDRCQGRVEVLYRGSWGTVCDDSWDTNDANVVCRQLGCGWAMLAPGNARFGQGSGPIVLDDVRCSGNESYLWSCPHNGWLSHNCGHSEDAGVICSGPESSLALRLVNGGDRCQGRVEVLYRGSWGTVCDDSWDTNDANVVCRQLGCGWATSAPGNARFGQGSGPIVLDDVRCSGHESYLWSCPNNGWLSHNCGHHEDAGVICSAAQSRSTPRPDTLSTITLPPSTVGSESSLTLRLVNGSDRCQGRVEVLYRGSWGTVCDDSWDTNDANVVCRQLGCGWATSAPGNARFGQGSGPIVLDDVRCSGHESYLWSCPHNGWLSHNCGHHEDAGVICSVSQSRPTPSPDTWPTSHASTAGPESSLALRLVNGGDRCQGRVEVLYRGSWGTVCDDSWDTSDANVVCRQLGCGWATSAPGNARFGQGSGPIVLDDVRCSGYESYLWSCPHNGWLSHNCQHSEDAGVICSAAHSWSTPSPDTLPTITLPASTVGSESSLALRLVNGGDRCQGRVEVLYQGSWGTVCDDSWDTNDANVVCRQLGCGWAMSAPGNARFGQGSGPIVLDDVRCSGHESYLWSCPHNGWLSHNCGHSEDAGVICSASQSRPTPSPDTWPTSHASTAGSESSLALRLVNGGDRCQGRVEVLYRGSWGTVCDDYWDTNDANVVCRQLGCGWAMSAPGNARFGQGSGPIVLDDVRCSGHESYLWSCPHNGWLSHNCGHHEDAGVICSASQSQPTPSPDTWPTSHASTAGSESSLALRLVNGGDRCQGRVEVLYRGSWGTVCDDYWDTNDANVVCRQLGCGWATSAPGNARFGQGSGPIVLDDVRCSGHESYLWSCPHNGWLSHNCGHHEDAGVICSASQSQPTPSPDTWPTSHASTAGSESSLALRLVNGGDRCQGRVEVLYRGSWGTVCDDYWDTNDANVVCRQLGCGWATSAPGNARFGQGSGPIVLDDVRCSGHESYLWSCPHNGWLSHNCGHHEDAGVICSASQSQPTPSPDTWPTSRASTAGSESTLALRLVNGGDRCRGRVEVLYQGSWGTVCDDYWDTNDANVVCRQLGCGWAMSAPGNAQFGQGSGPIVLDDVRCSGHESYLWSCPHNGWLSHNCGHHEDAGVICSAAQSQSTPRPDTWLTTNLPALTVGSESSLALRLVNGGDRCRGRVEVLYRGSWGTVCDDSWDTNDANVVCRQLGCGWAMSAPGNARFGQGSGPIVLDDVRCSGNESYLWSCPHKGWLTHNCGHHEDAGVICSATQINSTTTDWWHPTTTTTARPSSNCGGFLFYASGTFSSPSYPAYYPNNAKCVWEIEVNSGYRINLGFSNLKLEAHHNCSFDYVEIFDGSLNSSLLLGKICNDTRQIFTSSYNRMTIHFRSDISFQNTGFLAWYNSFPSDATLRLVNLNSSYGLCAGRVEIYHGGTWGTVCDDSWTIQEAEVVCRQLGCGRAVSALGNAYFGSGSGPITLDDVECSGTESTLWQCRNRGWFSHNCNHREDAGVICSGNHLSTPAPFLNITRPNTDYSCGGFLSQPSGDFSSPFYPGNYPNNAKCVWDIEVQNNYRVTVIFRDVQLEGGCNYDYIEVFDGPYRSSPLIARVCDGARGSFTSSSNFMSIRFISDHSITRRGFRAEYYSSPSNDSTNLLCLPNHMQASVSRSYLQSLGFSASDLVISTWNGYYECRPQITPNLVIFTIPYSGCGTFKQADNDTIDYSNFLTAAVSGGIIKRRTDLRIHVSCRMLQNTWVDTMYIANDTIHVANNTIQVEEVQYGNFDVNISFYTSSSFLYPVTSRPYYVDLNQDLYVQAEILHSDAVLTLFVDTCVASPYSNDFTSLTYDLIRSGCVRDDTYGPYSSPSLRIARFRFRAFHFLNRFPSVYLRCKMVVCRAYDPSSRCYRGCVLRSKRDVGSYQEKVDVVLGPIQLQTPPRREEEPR
Sequence of iSRCR123 (human) (Q9UGM3 102-463 limits assumed): as the sequence (Q9UGM3 102-463 limits assumed) above

For orientation: Kd means the constant that tells how readily two partners part at equilibrium. Lower therefore signals a tighter complex. In the case of “C123^SspB (S. gordonii DL1 SspB, residues 913-1406) (from UniProt P16952 913-1406)”, the Ka in test [1] was 1.07e+07 M⁻¹; in test [2], 921000 M⁻¹. In addition, the Kd is 93.4 nM in test [1], 1090 nM in test [2] and 6220 nM in test [3].

With “A3VP1^SspB (S. gordonii DL1 SspB, residues 386-805) (from UniProt P16952 386-805)”, the figures for the Ka (in test [1]; with iSRCR123 (human); in test [3]) were 3.19e+07 M⁻¹, 5.53e+07 M⁻¹ and 1.38e+06 M⁻¹, respectively. Moreover, the Kd in test [1] was 31.4 nM; with iSRCR123 (human), 18.1 nM; in test [2] it was 338 nM; in test [3], 727 nM.
